Assay results published in patent publication US20200071382A1 (published 2020).

Molecular target: T1, BMP9 (UniProt Q9UK05 320-429)
T1 construct: Ligand injected over the captured receptor protein
T1 sequence (looked up): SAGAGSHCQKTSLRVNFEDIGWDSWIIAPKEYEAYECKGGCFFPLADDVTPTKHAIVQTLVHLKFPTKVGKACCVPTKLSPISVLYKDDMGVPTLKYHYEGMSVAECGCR
Experiment: Biacore SPR; protein captured by anti-Fc antibody, ligand injected
Description: These protein complexes were independently captured in the system using an anti-Fc antibody. Ligands were injected and allowed to flow over the captured receptor protein. Results are summarized in the table below, in which ligand off-rates (kd) most indicative of effective ligand traps are denoted by bold text.

Kd: > 0.036 µM
B1: ENG(26-346)-Fc:Fc monomeric complex (Fc fusion)
chain: ETVHCDLQPVGPERDEVTYTTSQVSKGCVAQAPNAILEVHVLFLEFPTGPSQLELTLQASKQNGTWPREVLLVLSVNSSVFLHLQALGIPLHLAYNSSLVTFQEPPGVNTTELPSFPKTQILEWAAERGPITSAAELNDPQSILLRLGQAQGSLSFCMLEASQDMGRTLEWRPRTPALVRGCHLEGVAGHKEAHILRVLPGHSAGPRTVTVKVELSCAPGDLDAVLILQGPPYVSWLIDANHNMQIWTTGEYSFKIFPEKNIRGFKLPDTPQGLLGEARMLNASIVASFVELPLASIVSLHASSCGGRLQTSPAPIQTTPPTGGGTHTCPPCPAPELLGGPSVFLFPPKPKDTLMISRTPEVTCVVVDVSHEDPEVKFNWYVDGVEVHNAKTKPREEQYNSTYRVVSVLTVLHQDWLNGKEYKCKVSNKALPAPIEKTISKAKGQPREPQVYTLPPSRKEMTKNQVSLTCLVKGFYPSDIAVEWESNGQPENNYKTTPPVLKSDGSFFLYSKLTVDKSRWQQGNVFSCSVMHEALHNHYTQKSLSLSPGK
